Experimental data taken from PMC3223204, “Implantation Serine Proteinase 1 Exhibits Mixed Substrate Specificity that Silences Signaling via Proteinase-Activated Receptors” (PLoS ONE, 2011).

Biological target: T1, rat PAR2 (Rattus norvegicus, UniProt Q63645)
T1 construct: expressed in transfected cells; host or cells: KNRK (Kirsten virus-transformed normal rat kidney) cells
T1 sequence (Q63645 26-397): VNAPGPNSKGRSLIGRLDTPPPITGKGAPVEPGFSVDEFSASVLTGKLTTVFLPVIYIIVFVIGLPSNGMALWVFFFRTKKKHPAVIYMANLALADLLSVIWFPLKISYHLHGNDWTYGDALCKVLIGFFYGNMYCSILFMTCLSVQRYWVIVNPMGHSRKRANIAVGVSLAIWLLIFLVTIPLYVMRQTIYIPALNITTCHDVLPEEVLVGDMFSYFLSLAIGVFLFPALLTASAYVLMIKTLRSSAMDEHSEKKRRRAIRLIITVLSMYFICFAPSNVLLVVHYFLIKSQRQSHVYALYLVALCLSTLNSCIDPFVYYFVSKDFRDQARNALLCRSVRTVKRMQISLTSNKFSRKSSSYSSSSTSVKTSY
Assay: Calcium signaling assay, PAR2 activation/disarming in KNRK cells
Format: cell-based
Source text: The Kirsten virus-transformed normal rat kidney (KNRK) epithelial cell line expressing wild-type rat PAR2 (KNRKrPAR2), validated previously for studies of receptor activation was used to evaluate the PAR2-regulating properties of the ISP1 by the methods described previously. Human embryonic kidney cells (HEK293) that express the SV40 T-antigen were kindly provided by Dr. Jonathan Lytton, University of Calgary, Faculty of Medicine, Calgary (Alberta) Canada. The human HEK293 cells, that constitutively express both PAR1 and PAR2, were grown under similar conditions as described for the KNRK cells, but in the absence of geneticin, as outlined for the PAR-mediated calcium signaling procedure described previously. All cells were sub-cultured by dissociation in an isotonic EDTA/saline solution, pH 7.4, without the use of trypsin, to avoid cleavage of PARs.
Cell lines (grown to about 85% confluence and disaggregated with calcium-free isotonic phosphate-buffered saline containing 0.2 mM EDTA) and rat platelets (harvested from platelet-rich anti-coagulated plasma) were prepared and used as previously described. Cells were incubated for 25 min at room temperature with Fluo-3 acetoxymethyl ester (final concentration, 22 µM) along with 0.4 mM sulfinpyrazone. Cells were washed twice by centrifugation (using the following buffer without calcium) and resuspended in the calcium signaling buffer: 150 mM NaCl, 3 mM KCl, 1.5 mM CaCl2, 20 mM HEPES, 10 mM dextrose, and 0.25 mM sulfinpyrazone, pH 7.4.
Fluorescence was measured at 24 °C with an excitation wavelength of 480 nm and an emission recorded at 530 nm using an Aminco Bowman Series 2 Luminescence spectrometer (ThermoSpectronic Model FA354, Spectronic Unicam, Rochester, NY). The fluorescence signals caused by the addition of test agonists (trypsin, PAR-activating peptide or rISP1, added to 2 ml of a cell suspension of ~3 x 10^5 cells/ml) were compared with the fluorescence peak height yielded by replicate cell suspensions treated with 2 µM ionophore A23187. This concentration of A23187 was at the plateau of its concentration-response curve for a fluorescence response in Fluo-3-loaded cultured cells. Under these conditions, the calculated values for intracellular calcium in the HEK and KNRK cells were [picture] […]
Previous work has shown that the fluorescence response of a cell preparation, as a percentage relative to the signal generated by 2 µM A23187, is a valid reference standard for the comparative determination of calcium signals for all PAR agonists. The cellular calcium response was therefore recorded as a percentage of the response generated by 2 µM ionophore A23187 [6]. […]
Receptor activation was monitored as an enzyme-stimulated increase in fluorescence emission (E530). […]

Cellular response to PAR2-activating peptide after ISP1 pre-treatment (SLIGRL-NH2 (10 µM), concentration-dependent): diminished | Activation of a calcium signal via PAR2 (enzyme alone): did not activate a calcium signal | residual PAR2 activity triggered by trypsin (pre-treatment with 5 Units/ml ISP1, then trypsin (1.0 units/ml)): ~80% | residual PAR2 activity (% of control) (pre-treatment with 20 units ISP1/ml, then trypsin (1.0 units/ml)): ~40%
B1: ISP1: recombinant implantation serine proteinase 1 expressed in Pichia pastoris, also known as Mouse Prss28 (protein, UniProt Q924N9 27-274, looked up)
Serine protease 28: KPVGIVGGQRTPPGKWPWQVSLRMYSYEVNSWVHICGGSIIHPQWILTAAHCIQSQDADPAVYRVQVGEVYLYKEQELLNISRIIIHPDYNDVSKRFDLALMQLTALLVTSTNVSPVSLPKDSSTFDSTDQCWLVGWGNLLQRVPLQPPYQLHEVKIPIQDNKSCKRAYRKKSSDEHKAVAIFDDMLCAGTSGRGPCFGDSGGPLVCWKSNKWIQVGVVSKGIDCSNNLPSIFSRVQSSLAWIHQHIQ
modifications: recombinant, Pichia pastoris-expressed
notes: recombinant implantation serine proteinase 1 expressed in Pichia pastoris, also known as Mouse Prss28
